Laboratory results as given in patent US20180086836A1 (GLENMARK PHARMACEUTICALS S A, published 2018).
Blank lines part the entries; values can stand above or below the binder they belong to.

Columns and labels:
[1] = biological target: T1, recombinant human N-terminal CCR6 Fc (human); assay: SPR (Biacore) off-rate ranking of scFv on the human CCR6 N-terminal Fc fusion
T1 construct: also called human CCR6-Fc; hsCCR6-Nter-Fc

human CCR6 = biological target: T2, human CCR6 (human, UniProt P51684 1-374); assay: flow cytometry on BAF cells transfected with human CCR6, hybridoma supernatant, anti-mouse IgG-PE
T2 construct: Full length human CCR6 on transfected BAF or CHO cells, or native on human PBMCs; also called hsCCR6; CCR6 receptor
T2 sequence: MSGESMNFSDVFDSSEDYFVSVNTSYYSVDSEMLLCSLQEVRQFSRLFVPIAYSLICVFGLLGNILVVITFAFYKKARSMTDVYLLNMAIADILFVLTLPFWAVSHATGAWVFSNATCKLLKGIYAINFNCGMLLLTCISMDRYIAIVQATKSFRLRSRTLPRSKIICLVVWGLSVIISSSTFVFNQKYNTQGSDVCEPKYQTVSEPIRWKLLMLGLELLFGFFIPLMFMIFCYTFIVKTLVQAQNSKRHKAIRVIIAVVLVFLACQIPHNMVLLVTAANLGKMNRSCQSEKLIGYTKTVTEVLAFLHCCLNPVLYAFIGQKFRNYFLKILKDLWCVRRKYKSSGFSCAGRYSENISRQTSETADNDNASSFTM
Description: Antibody titers, specificity and production by hybridomas and recombinant antibody candidates were determined by flow cytometry. Briefly, BAF cells transfected with human CCR6 (Generation of these transfected cells is detailed in example 1) were cultured and 2×10⁵ cells were distributed in a 96 well V bottom plate (TPP, Trasadingen, Switzerland), and centrifuged for three minutes at 1300 rpm; supernatants were discarded, cells were collected and analyzed by flow cytometry as described below. Cells were resuspended in 50 μl of hybridoma supernatant or in 50 μl of FACS buffer (PBS, 2% FBS, 10% Versene (Invitrogen, USA)) with 5 μg/mL of isotype control or commercial mouse anti-human CCR6 antibody (clone 11A9, BD Biosciences, Allschwil, Switzerland). Cells were incubated for 30 minutes on ice, washed two times and resuspended in 50 μl of FACS buffer. An anti-mouse IgG-Phycoerithrin-PE (BD Biosciences, Allschwil, Switzerland) diluted 1/200 was used to detect CCR6-specific mouse hybridoma and the isotype control antibody. Cells were incubated for 15 minutes on ice, washed once, resuspended in 400 μl of FACS buffer and analyzed on the FACS instrument (Cyan, Beckman Coulter International S.A., Nyon, Switzerland).

[2] = biological target: T3, recombinant cynomologus N-terminal CCR6 peptide Fc (cynomolgus monkey; human); assay: direct ELISA, Fc fusion coated at 2 µg/ml, anti-human F(ab')2-HRP
T3 construct: It differs from the human construct only in the CCR6 N-terminus; also called Cyno CCR6-Fc; cynoCCR6-Nter-Fc
Description: (§1) FIG. 8: Direct binding ELISA on immobilized recombinant human N-terminal CCR6 Fc. Binding of humanized 4H11 H5L1 antibody on human N terminus fragment of CCR6 was measured by direct ELISA. Various concentrations (ranging from 10 to 0.00006 μg/ml) of humanized 4H11 H5L1 in IgG1 and IgG4HS backbones were incubated with 2 μg/ml of either recombinant human N terCCR6-Fc tagged protein (FIG. 8A) or recombinant cynomologus N-terminal peptide Fc (FIG. 8B), coated overnight at 4° C. in a 96-well plate. Binding of humanized 4H11 H5L1 antibody to Nter CCR6-Fc protein was detected by horseradish peroxidase (HRP)-conjugated anti-human (Fab)′2-specific antibody.
(§2) A binding ELISA was performed to test the reactivity of 4H11 VH5/VL1 IgG1 and 4H11 VH5/VL1 IgG4HS antibodies on peptides consisting of the N-terminal region of CCR6 from human and cynomologus species. Briefly, 96 well-microtiter plates (Costar USA, distributor VWR AG, Nyon, Switzerland) were coated with 100 μl of recombinant human and cynomologus N-terminus peptide-Fc at 2 μg/ml in PBS. Plates were incubated overnight at 4° C. and were then blocked with PBS 2% BSA (Bovine Serum Albumine, PAA Laboratories, Pasching, Austria) at room temperature (RT) for one hour. The blocking solution was removed and various concentrations of 4H11 VH5/VL1 IgG1 and 4H11 VH5/VL1 IgG4HS were added. The plates were incubated at RT for 1 hour, then washed six times with PBS 0.01% Tween-20 (Sigma-Aldrich Chemie GmbH, Buchs, Switzerland) and a goat-anti human Ig F(ab′)2 fragment specific-HRP (Jackson ImmunoResearch Europe Ltd, Newmarket, UK). After washing, the plates were incubated with TMB substrate (Bio-Rad Laboratories AG, Reinach, Switzerland) to reveal antibody binding. The reaction was stopped by adding 2M H₂SO₄ and the optical density was read at 450 nm (OD 450 nm) on a Synergy HT2 spectrophotometer (Biotek, USA; distributor: WITTEC AG, Littau, Switzerland).

[3] = biological target: T1, recombinant human N-terminal CCR6 Fc; assay: as above
Description: as §1, §2

- binding result [1]: binds
B1: VH5/VL1-L3-G8 scFv variant (scFv)
scFv: EVQLVESGGGLVQPGGSLRLSCAASGFSFSDYYMYWVRQAPGKGLEWVSYITNGGITYYPDSVKGRFTISRDNSKNTLYLQMNSLRAEDTAVYYCTSPLRGAWFAYWGQGTLVTVSSGGGGSGGGGSGGGGSTDVVMTQSPLSLPVTLGQPASISCRSSQSIVHSNGNTYLEWYQQRPGQSPRLLIYKVSNRFSGVPDRFSGSGSGTDFTLKISRVEAEDVGVYYCFQGTYLPLTFGQGTKLEIK

- binding result (human CCR6): binds
B2: 4H11 (antibody, V domains shown)
VH: EVKLVESGGGLVQPGGSLKLSCATSGFSFSDYYMYWIRQTPEKRLEWVAYITNGGITYYPDTVKGRFTISRDNAKNTLYLQMSRLRSEDTAMYYCTSPLRGAWFAYWGQGTLVTVSS
VL: DVIMTQSPLSLPVSLGDQASISCRSSQSIVHSNGNTYLEWYLQKPGQSPKLLIYKVSNRFSGVPDRFSGSGSGTDFTLKISRVEAEDLGLYYCFQGSHVPLTFGAGTKLEIK
notes: parent of the chimeric 4H11 antibody m1; also called murine antibody 4H11; hybridoma clone 4H11

- EC50 (read off the curve) [2]: ~0.2 µg/mL
- EC50 (read off the curve) [3]: ~0.07 µg/mL
B3: 4H11 VH5/VL1 IgG1 antibody (antibody, V domains shown)
VH: EVQLVESGGGLVQPGGSLRLSCAASGFSFSDYYMYWVRQAPGKGLEWVSYITNGGITYYPDSVKGRFTISRDNSKNTLYLQMNSLRAEDTAVYYCTSPLRGAWFAYWGQGTLVTVSS
VL: DVVMTQSPLSLPVTLGQPASISCRSSQSIVHSNGNTYLEWYQQRPGQSPRLLIYKVSNRFSGVPDRFSGSGSGTDFTLKISRVEAEDVGVYYCFQGSHVPLTFGQGTKLEIKR
notes: also called H5/L1; VH5/VL1 antibody
